Laboratory results taken from US7083949.

Key:
Assay in all cases: cell-based or functional assay
[1] = biological target: recombinant human IL-13 (E. coli) (human) (UniProt P35225)
human IL-13 (human) = human IL-13 (human) (UniProt P35225)
human IL-4 (human) = human IL-4 (human) (UniProt P05112)
human IL-6 (human) = human IL-6 (human) (UniProt P05231)
[2] = biological target: recombinant human IL-1 (human)

human IL-4 (human), sequence (P05112 25-153 limits assumed): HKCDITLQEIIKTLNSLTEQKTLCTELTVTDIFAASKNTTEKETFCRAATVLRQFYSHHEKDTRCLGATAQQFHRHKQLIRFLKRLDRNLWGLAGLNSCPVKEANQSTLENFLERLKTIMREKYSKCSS
human IL-13 (human), sequence (P35225 35-146 limits assumed): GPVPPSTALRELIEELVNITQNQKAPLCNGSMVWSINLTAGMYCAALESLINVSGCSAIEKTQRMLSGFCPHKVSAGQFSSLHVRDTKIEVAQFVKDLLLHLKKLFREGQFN
human IL-6 (human), sequence (P05231 30-212 limits assumed): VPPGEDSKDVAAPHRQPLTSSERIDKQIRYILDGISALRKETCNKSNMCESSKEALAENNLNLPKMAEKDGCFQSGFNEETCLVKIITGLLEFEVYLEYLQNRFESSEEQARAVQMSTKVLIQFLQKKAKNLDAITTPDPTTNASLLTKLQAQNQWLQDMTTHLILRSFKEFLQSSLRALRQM
recombinant human IL-13 (E. coli) (human), sequence (P35225 35-146 limits assumed): as the sequence (P35225 35-146 limits assumed) above

For IL-4/IL-13 Trap 1132 (Fc fusion), the IC50, TF1 cell proliferation with 15 pM IL-13 (E. coli; Preprotech), MTS [1] was 64 pM.
In the case of IL-4Rα.IL-13Rα1.Fc (Fc fusion), the TF1 cell proliferation (MTS); IL-13 concentration at which growth is inhibited by 50% with 10 nM Trap (human IL-13 (human)) is reported as 4 to 5 nM, the TF1 cell proliferation (MTS); highest IL-13 concentration blocked by 10 nM Trap (human IL-13 (human)) is reported as 2 nM and the TF1 cell proliferation (MTS); IL-4 concentration at which growth is inhibited by 50% with 10 nM Trap (human IL-4 (human)) is reported as 3 to 4 nM. The TF1 cell proliferation (MTS); highest IL-4 concentration blocked by 10 nM Trap (human IL-4 (human)) was 1 nM.
Work on IL-13Rα1.IL-4Rα.Fc (Fc fusion) yielded a TF1 cell proliferation (MTS); IL-13 concentration at which growth is inhibited by 50% with 10 nM Trap (human IL-13 (human)) of 4 to 5 nM, a TF1 cell proliferation (MTS); highest IL-13 concentration blocked by 10 nM Trap (human IL-13 (human)) of 2 nM and a TF1 cell proliferation (MTS); IL-4 concentration at which growth is inhibited by 50% with 10 nM Trap (human IL-4 (human)) of 3 to 4 nM. For the same substance, the TF1 cell proliferation (MTS); highest IL-4 concentration blocked by 10 nM Trap (human IL-4 (human)) was 1 nM.
For gp130-Fc homodimer (Fc fusion), the inhibition of IL-6-dependent proliferation of XG-1 cells (MTT) (fold molar excess over IL-6) (human IL-6 (human)) was > 1000.
“gp130-Fc-CNTFRα-Fc ligand Trap (Fc fusion)” was tested, and the inhibition of IL-6-dependent proliferation of XG-1 cells (MTT) (fold molar excess over IL-6) (human IL-6 (human)) was > 1000.
human IL-1 Trap (Fc fusion) showed a serum IL-6 in mice after injection of human IL-1 (in vivo) (fold molar excess) [2] of 150.
